This is an account of results in publication PMC8826447 (2022).

The assay deals with ASF1 (Homo sapiens, UniProt Q9Y294).
ASF1, sequence (Q9Y294 whole entry): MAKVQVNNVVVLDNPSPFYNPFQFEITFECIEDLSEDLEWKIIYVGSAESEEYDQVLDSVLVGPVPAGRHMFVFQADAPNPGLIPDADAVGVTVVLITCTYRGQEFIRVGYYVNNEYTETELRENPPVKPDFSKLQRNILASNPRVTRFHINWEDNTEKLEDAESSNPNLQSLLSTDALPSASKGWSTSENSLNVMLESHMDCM

B1: TLK2 (protein)
chain: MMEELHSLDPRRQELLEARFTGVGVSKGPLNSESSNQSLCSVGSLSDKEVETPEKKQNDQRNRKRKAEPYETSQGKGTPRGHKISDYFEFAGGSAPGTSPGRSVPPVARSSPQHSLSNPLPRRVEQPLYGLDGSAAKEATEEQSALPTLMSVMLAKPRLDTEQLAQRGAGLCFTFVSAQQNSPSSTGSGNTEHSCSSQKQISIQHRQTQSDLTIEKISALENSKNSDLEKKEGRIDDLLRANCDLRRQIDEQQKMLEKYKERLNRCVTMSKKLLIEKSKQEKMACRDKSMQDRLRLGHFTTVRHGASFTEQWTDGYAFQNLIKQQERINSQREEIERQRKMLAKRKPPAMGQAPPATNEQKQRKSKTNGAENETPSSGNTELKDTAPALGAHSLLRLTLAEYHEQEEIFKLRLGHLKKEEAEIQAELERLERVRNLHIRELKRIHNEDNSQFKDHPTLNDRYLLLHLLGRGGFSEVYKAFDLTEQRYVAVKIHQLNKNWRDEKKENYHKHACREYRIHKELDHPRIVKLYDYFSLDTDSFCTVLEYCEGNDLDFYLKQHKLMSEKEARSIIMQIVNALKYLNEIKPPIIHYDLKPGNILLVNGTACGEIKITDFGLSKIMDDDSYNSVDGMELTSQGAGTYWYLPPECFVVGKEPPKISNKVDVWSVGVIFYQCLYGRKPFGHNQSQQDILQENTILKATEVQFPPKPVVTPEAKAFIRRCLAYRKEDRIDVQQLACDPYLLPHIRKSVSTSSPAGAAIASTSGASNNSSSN
Regarding B1, the Kd was around 2 µM.

The Kd is a measure of binding affinity in units of concentration. A higher Kd goes with a looser complex.
